# Laboratory results reported in the emibetuzumab library of Makowski et al. (2022).
# B1: VH:VL chains; a variant is named by its letters at X, in order (parent)
# chain 1: QVQLVQSGAEVKKPGASVKVSCKASGYTFTDYXMHWVRQAPGQGLEWMGXVNPNXXXTTYNQKFEGRVTMTTDTSTSTAYMELRSLRSDDTAVYYCARXNXLDXWGQGTTVTVSS
# chain 2: DIQMTQSPSSLSASVGDRVTITCSVSSSVSSIYLHWYQQKPGKAPKLLIYSTSNLASGVPSRFSGSGSGTDFTLTISSLQPEDFATYYCQVYSGYPLTFGGGTKVEIK
# Variants of: B1
# Experiment: yeast display scFab, FACS + sequencing
# Summary of the method: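 Heavy-chain CDR mutant scFab yeast surface library, FACS-sorted after labelling with biotinylated ovalbumin (260 μg/mL in PBSB, 3 h, room temperature) or soluble membrane proteins (130 μg/mL, 20 min on ice), plus anti-Myc. Gates collected the top 25% and bottom 10% of binders, and samples from two replicates were deep sequenced. Non-specific binding call: a sequence was positive if found in ≥3 of 4 positive samples (membrane protein and ovalbumin pooled) and no negatives, and negative by the converse rule.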
row,Variant,non-specific binding call
1,YKRRNSGD,binds
2,SKKGDFWV,binds
3,YKTGGAGV,binds
4,VKRRSVGA,binds
5,FKKGSVGD,binds
6,SKTKSDVA,no binding
7,SKTKSDVD,no binding
8,SKTKSDVV,no binding
9,YKTGGDGV,no binding
10,YKRGASVA,binds
11,FKTAGSAV chain 1 R67H,binds
12,YKTRGSAA,binds
13,YKTRGSAD,binds
14,FKTKDSVV,binds
15,YKKRGAWS,binds
16,YKTESYWY,binds
17,VKKRGAWS,binds
18,YRAESSGV,binds
19,SKKRGASA,binds
20,YKRAAVWD,binds
21,YKKRGAGV,binds
22,YKRGDDSS,no binding
23,YKRGDAWA,no binding
24,YKRGDAWD,no binding
25,YRAEGYVV,binds

row,Variant,non-specific binding call
1,DKRKGVSD chain 1 S88F,binds
2,YKRGSSSY,binds
3,YKRGSSSD,binds
4,DKTKGDWV,no binding
5,VRAEGSVA,binds
6,YKRGGAVV,binds
7,VKTGGDGD,no binding
8,VRAEASVV,binds
9,DKKKDVVF,binds
10,VKKESSGF,binds
11,FKTKSAGD,no binding
12,VRAGADGV,no binding
13,YRAAGDVA,no binding
14,VKRGSSLF,binds
15,VKTGGDVF,no binding
16,VKTGGDVY,no binding
17,VKTGGDVA,no binding
18,FKRGDAGD,binds
19,YKRGGAGS,binds
20,YKKTGDLY,no binding
21,ARAETDVY,no binding
22,VKKGSSLF,binds
23,YKREGSAV,no binding
24,YKTGDDGV,no binding
25,DKTGNDVV,no binding

row,Variant,non-specific binding call
1,DKTGNDVA,no binding
2,FKRRSASV,binds
3,VRAGADAV,no binding
4,DKTGDDGS,no binding
5,VKTKGVVD,binds
6,YKRGGSSY,no binding
7,YKTRGAGD chain 1 Q43R,no binding
8,YKRGSAWV,binds
9,YKRGSAWD,binds
10,DKRKGVAF,binds
11,FKTKNYVV,binds
12,ARAASAGA,binds
13,YKKGSSLF,binds
14,DKTGDSAD,no binding
15,SKKRGAAA,binds
16,FKTGDAWS,binds
17,VKKTGDLY,no binding
18,VKKESDSY,no binding
19,YKRGSAVD,binds
20,FKKGSSAA,binds
21,AKTKSDVA,no binding
22,YKRGDSSS,no binding
23,YKRGAAGD,binds
24,YKRGDSGF,no binding
25,YKTGGALY,no binding

row,Variant,non-specific binding call
1,FKKRGAWS,binds
2,YRAETDVA,no binding
3,VKTGGSWA,no binding
4,VKTGGSWV,no binding
5,VKRRDSGD,binds
6,FKRKNSAA,binds
7,YKRRGSAA,binds
8,FKRRDSVY,binds
9,YKRGASLA,binds
10,VKRGSSAA,binds
11,SKKRGSGA,binds
12,SKKRGSWD,binds
13,YRAAGSGA,binds
14,FKRKAAAA,binds
15,SKTKSDGS,no binding
16,SKTKSDGV,no binding
17,SKTKSDGA,no binding
18,SKTRGAGV,binds
19,YKTRSAVA,binds
20,DRAETDVY,no binding
21,FKTESAAV,binds
22,YKTRGAVS,binds
23,YRAGAASD,binds
24,VKRGSAAV,binds
25,VKRGSAAA,binds

row,Variant,non-specific binding call
1,FKKGSSLD,binds
2,YKKGAAGF,binds
3,YRAGAAVA,binds
4,FKTRDFAY,binds
5,YKRRDFGV,binds
6,YKRGDAGY,no binding
7,DKTGDAAV,no binding
8,VRAGAAGS,no binding
9,VRAGAAGV,binds
10,FKRGSSAA,binds
11,YRAEGSSS,binds
12,YKRGGAAA,binds
13,YKTGGASS,binds
14,YKKGGSGV,binds
15,ARAAGDVF,no binding
16,VRAEGSSV,no binding
17,AKRGAFAD,binds
18,DKTGDDVF,no binding
19,SKTKSSAS,no binding
20,YKRGSSWD,binds
21,FKKGSSGV,binds
22,FKKGSSGD,binds
23,YKKTGYWV,binds
24,VKRGSSGA,binds
25,VKRGSSGD,binds

row,Variant,non-specific binding call
1,YRAEGALD,binds
2,SKTRAFVA,binds
3,YKRRSSVF,binds
4,YKRGAAWS,binds
5,VKRGSSSD,binds
6,YKRGDAVF,no binding
7,YRAEGAWS,binds
8,VRAETDVY,no binding
9,FKTGGAAV,binds
10,YKTGDSWV,no binding
11,FKKGDAVS,binds
12,YKTGSSWD,binds
13,YRAAGSWS,binds
14,YKRRDSVD,binds
15,VKRATSWD,binds
16,YKRRDAVY,binds
17,YKRGGSGD,binds
18,FKRGSSLD,binds
19,FKRGSSLF,binds
20,YKRGSDGA,binds
21,YKTRGFGA,binds
22,VKRGSSVD,binds
23,DKTKSDWV,no binding
24,AKTKSDGV,no binding
25,VKREAVGV,binds

row,Variant,non-specific binding call
1,AKRGSAAV,binds
2,YKRGGSWD,binds
3,VKRATVLA,binds
4,FKKGSFGA,binds
5,VRAGADSV,no binding
6,YKTRSAWS chain 1 M48I,binds
7,SKTRGAWD,binds
8,YKRGSFGA,binds
9,SKKTGSVD,no binding
10,FKKGSAVV,binds
11,FKKGSAVA,binds
12,YKTRGSLD,binds
13,FKTEGFVS,binds
14,FKTKNYAD,binds
15,SKKTGDLY,no binding
16,YKTRSSAD,binds
17,FKKGSYVF,binds
18,YKRRSASA,binds
19,ARAAGDWV,no binding
20,YKRAAYGD,binds
21,FKRAGSLA,binds
22,VKTGGAVV,no binding
23,SKRETAWS,binds
24,VKTGGSLD,no binding
25,YKRGSFVD,binds

row,Variant,non-specific binding call
1,YRAETDGV,no binding
2,VKRRSSLA,binds
3,SKTKSSGA,no binding
4,AKTRDFVA,binds
5,FRAEGSLD,binds
6,YKRGSSGA,binds
7,YKRGSSGD,binds
8,YKRGSSGF,binds
9,YKRGSASD,binds
10,YKRGSASV,binds
11,AKKRGAWS,binds
12,FRAEGSVA,binds
13,FKTKSDAV,no binding
14,YRAESAAA,binds
15,DKREADGA,no binding
16,FKKKDASV,binds
17,YKRGDDGD,no binding
18,YRAAGAGS,binds
19,YKRGSAAA,binds
20,YKRGSSVV,binds
21,YKRGSSVD,binds
22,YKRGSSVS,binds
23,FKRRSFGS,binds
24,VKTGGAGA,no binding
25,DKREADVA,no binding

row,Variant,non-specific binding call
1,AKTRDDVA,no binding
2,YKKGGSLA,binds
3,YKKGGSLD,binds
4,SKKRGAWY,binds
5,SKKRGAWA,binds
6,SKRRGSLS,binds
7,YKRESAAV,binds
8,YKRRDAWV,binds
9,VKTGGAWY,no binding
10,SKTKSSSA,no binding
11,YKTKSDGV,no binding
12,FKRRSSGD,binds
13,SKRRSVGA,binds
14,AKTKSDWV,no binding
15,FKRGSSSY,binds
16,YKRKSASD,binds
17,VKRGSFVD,binds
18,VKRGDDVA,no binding
19,VKRGDDVV,no binding
20,FKRRSVGA,binds
21,YMAEGSGA,binds
22,YKRRDASD,binds
23,YKTKSDWV,no binding
24,VKKTGSGA,binds
25,VKREASVV,binds

row,Variant,non-specific binding call
1,SKRKSSGA,binds
2,SKTKSDWA,no binding
3,FKKGSAAV,binds
4,FKKGSSWD,binds
5,YKTRDDAV,no binding
6,YKTGGSGA,binds
7,SKRKSSSD,binds
8,YKTGNDVA,no binding
9,YKTKGSSY,binds
10,YKRESAGY,binds
11,SKTKSDAV,no binding
12,YKRGSAGF,binds
13,YKRGSAGD,binds
14,YKRESSSV,binds
15,YKRGDDLV,no binding
16,AKTGNDVA,no binding
17,YKRGDASS,no binding
18,AKTGDSSD,no binding
19,YKTGDSVD,no binding
